Legend:
[1] = molecular target: c-Met on human cancer cells (MKN45 gastric cancer cells; NCI-H441 lung cancer cells) (human) (UniProt P08581); assay: cell-based or functional assay
[2] = molecular target: human c-Met protein (human) (UniProt P08581); assay: SPR (Biacore), antibody immobilized on CM5 chip, human c-Met protein 0.39-100 nM injected
human c-Met protein (human), sequence (P08581 25-932 limits assumed): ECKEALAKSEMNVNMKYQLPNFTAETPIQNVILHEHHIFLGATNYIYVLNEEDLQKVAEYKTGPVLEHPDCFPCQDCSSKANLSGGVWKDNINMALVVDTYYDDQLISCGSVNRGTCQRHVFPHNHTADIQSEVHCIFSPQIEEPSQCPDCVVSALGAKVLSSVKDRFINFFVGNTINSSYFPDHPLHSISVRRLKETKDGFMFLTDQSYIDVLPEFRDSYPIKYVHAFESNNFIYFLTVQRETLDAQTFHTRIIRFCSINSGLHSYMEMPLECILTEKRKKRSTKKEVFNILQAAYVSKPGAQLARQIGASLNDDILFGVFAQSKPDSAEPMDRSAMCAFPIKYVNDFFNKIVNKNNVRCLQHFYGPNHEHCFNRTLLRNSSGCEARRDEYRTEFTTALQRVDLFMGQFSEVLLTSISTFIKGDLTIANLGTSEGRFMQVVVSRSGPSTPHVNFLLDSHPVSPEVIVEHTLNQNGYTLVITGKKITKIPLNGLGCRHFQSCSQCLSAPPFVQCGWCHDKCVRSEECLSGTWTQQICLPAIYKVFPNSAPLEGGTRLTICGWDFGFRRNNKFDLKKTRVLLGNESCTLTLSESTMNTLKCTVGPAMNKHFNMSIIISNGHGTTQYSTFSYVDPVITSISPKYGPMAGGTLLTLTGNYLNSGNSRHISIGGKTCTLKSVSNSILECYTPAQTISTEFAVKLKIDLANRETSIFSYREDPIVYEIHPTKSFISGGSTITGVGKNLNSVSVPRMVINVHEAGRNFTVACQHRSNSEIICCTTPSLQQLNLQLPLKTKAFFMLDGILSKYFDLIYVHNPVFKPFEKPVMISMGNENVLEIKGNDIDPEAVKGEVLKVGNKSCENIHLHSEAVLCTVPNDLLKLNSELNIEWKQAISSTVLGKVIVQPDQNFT

c-Met on human cancer cells (MKN45 gastric cancer cells; NCI-H441 lung cancer cells) (human), sequence (P08581 25-1390): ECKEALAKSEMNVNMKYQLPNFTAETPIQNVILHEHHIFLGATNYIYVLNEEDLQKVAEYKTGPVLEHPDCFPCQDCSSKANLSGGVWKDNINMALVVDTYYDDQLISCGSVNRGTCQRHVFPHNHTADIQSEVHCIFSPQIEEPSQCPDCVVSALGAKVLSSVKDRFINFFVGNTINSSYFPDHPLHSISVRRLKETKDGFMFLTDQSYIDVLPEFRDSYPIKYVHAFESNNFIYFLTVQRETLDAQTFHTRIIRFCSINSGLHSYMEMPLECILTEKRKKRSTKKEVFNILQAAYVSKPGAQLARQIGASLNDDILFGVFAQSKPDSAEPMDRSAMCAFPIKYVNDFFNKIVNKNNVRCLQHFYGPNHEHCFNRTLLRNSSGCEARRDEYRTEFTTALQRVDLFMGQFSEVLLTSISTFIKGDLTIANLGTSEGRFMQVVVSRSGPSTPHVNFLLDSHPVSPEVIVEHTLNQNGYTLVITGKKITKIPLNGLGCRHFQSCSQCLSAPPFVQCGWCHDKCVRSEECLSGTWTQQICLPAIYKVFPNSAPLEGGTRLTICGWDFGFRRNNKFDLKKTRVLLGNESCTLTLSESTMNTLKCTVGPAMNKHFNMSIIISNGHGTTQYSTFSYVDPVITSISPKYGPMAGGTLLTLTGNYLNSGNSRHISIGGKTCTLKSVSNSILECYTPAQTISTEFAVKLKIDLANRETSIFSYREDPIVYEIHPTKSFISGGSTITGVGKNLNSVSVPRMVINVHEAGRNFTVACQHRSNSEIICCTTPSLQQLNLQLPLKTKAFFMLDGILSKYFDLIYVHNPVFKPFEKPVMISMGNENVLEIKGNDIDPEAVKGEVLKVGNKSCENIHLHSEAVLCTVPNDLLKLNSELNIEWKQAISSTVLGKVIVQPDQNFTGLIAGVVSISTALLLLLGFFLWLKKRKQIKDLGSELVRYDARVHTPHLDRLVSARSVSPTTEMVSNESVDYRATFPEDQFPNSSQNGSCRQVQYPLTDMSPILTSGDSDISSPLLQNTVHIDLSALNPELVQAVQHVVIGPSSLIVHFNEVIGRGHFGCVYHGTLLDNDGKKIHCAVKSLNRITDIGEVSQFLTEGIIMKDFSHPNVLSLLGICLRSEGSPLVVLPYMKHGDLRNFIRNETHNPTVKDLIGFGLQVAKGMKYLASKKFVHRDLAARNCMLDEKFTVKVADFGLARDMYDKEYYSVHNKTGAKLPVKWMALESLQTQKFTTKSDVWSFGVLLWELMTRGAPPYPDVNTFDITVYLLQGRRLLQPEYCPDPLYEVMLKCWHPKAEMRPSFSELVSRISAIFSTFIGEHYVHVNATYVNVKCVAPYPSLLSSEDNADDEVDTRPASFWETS

B1: huAbF46-H4-A1 (antibody, from a related filing, V domains shown)
VH: EVQLVESGGGLVQPGGSLRLSCAASGFTFTDYYMSWVRQAPGKGLEWLGFIRNKANGYTTEYSASVKGRFTISRDNSKNTLYLQMNSLRAEDTAVYYCARDNWFAYWGQGTLVTVSS
VL: DIQMTQSPSSLSASVGDRVTITCKSSQSLLASGNQNNYLAWHQQKPGKAPKMLIIWASTRVSGVPSRFSGSGSGTDFTLTISSLQPEDFATYYCQQSYSRPYTFGQGTKVEIKR
[1]
  BrdU assay on NCI-H441 cells (agonism), 10 ug/ml: 25%
  degree of degradation of c-Met (total c-Met ELISA, MKN45 cells, 5 ug/ml, 24 hours): 37%
[2]
  Kd: 60 pM
  koff: 4.53e-05 s⁻¹
  kon: 739000 M⁻¹ s⁻¹
